Laboratory results reported in the supplement of paper PMC9112550, “Optimization of the antimicrobial peptide Bac7 by deep mutational scanning” (BMC Biology, 2022).

tested on: Escherichia coli TOP10; assay: shrunken log2 fold change of peptide-encoding DNA abundance (4.5 h post-induction vs induction); higher = less antimicrobial activity (less host growth inhibition); settings: time post-induction: 4.5 h; library: site-saturation at positions 5, 18, 19, 20
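Also: peptides expressed intracellularly from a pBAD plasmid library in pooled LB shake-flask culture, induced with 0.3% L-arabinose, DNA abundance read by NGS, three biological replicates, DESeq2 with apeglm shrinkage.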

Sequence | shrunken log2 fold change
RRIRWRPPRLPRPRPRPEPRPRP | 0.886
RRIRWRPPRLPRPRPRPEQHPRP | 0.339
RRIRWRPPRLPRPRPRPEQTPRP | -0.0026
RRIRWRPPRLPRPRPRPERIPRP | 0.0766
RRIRWRPPRLPRPRPRPETNPRP | 0.187
RRIRWRPPRLPRPRPRPEWFPRP | 0.395
RRIRWRPPRLPRPRPRPFAHPRP | -0.0296
RRIRWRPPRLPRPRPRPFAPPRP | 0.505
RRIRWRPPRLPRPRPRPFCGPRP | 0.437
RRIRWRPPRLPRPRPRPFDTPRP | -0.113
RRIRWRPPRLPRPRPRPFEGPRP | -0.0062
RRIRWRPPRLPRPRPRPFFCPRP | 0.104
RRIRWRPPRLPRPRPRPFFEPRP | -0.0187
RRIRWRPPRLPRPRPRPFFFPRP | 0.253
RRIRWRPPRLPRPRPRPFFYPRP | 0.0746
RRIRWRPPRLPRPRPRPFHFPRP | -0.451
RRIRWRPPRLPRPRPRPFHKPRP | -0.28
RRIRWRPPRLPRPRPRPFHYPRP | -2.18
RRIRWRPPRLPRPRPRPFLMPRP | -0.115
RRIRWRPPRLPRPRPRPFNGPRP | -0.0132
RRIRWRPPRLPRPRPRPFPSPRP | -0.1
RRIRWRPPRLPRPRPRPFPVPRP | -0.0948
RRIRWRPPRLPRPRPRPFQEPRP | -0.0827
RRIRWRPPRLPRPRPRPFRDPRP | -0.196
RRIRWRPPRLPRPRPRPFRWPRP | 0.0815

Sequence | shrunken log2 fold change
RRIRWRPPRLPRPRPRPFTNPRP | 0.115
RRIRWRPPRLPRPRPRPFVGPRP | -0.166
RRIRWRPPRLPRPRPRPFYCPRP | -0.151
RRIRWRPPRLPRPRPRPFYEPRP | -0.579
RRIRWRPPRLPRPRPRPFYMPRP | -0.297
RRIRWRPPRLPRPRPRPFYYPRP | -0.138
RRIRWRPPRLPRPRPRPGAEPRP | 1.17
RRIRWRPPRLPRPRPRPGASPRP | 0.793
RRIRWRPPRLPRPRPRPGGIPRP | 0.22
RRIRWRPPRLPRPRPRPGGKPRP | 0.227
RRIRWRPPRLPRPRPRPGKEPRP | -0.0139
RRIRWRPPRLPRPRPRPGMIPRP | -0.0827
RRIRWRPPRLPRPRPRPGNCPRP | -0.0763
RRIRWRPPRLPRPRPRPGNHPRP | -0.163
RRIRWRPPRLPRPRPRPGQTPRP | -0.0122
RRIRWRPPRLPRPRPRPGRPPRP | 0.42
RRIRWRPPRLPRPRPRPGRVPRP | 0.37
RRIRWRPPRLPRPRPRPGTQPRP | 0.216
RRIRWRPPRLPRPRPRPGVGPRP | 1.27
RRIRWRPPRLPRPRPRPGVTPRP | 0.586
RRIRWRPPRLPRPRPRPGVVPRP | 0.576
RRIRWRPPRLPRPRPRPGYAPRP | 0.38
RRIRWRPPRLPRPRPRPGYGPRP | -0.0305
RRIRWRPPRLPRPRPRPGYMPRP | -0.288
RRIRWRPPRLPRPRPRPHDDPRP | 0.0487

Sequence | shrunken log2 fold change
RRIRWRPPRLPRPRPRPHDTPRP | 0.0511
RRIRWRPPRLPRPRPRPHEQPRP | 0.718
RRIRWRPPRLPRPRPRPHEVPRP | 0.169
RRIRWRPPRLPRPRPRPHFHPRP | -0.596
RRIRWRPPRLPRPRPRPHFNPRP | -0.333
RRIRWRPPRLPRPRPRPHGFPRP | 0.407
RRIRWRPPRLPRPRPRPHGHPRP | -0.0213
RRIRWRPPRLPRPRPRPHLSPRP | -0.154
RRIRWRPPRLPRPRPRPHNPPRP | -0.115
RRIRWRPPRLPRPRPRPHPFPRP | -0.42
RRIRWRPPRLPRPRPRPHRSPRP | -0.243
RRIRWRPPRLPRPRPRPHSGPRP | 0.00842
RRIRWRPPRLPRPRPRPHVEPRP | -0.042
RRIRWRPPRLPRPRPRPHVWPRP | 0.126
RRIRWRPPRLPRPRPRPHWWPRP | 0.629
RRIRWRPPRLPRPRPRPHWYPRP | 2.17
RRIRWRPPRLPRPRPRPICCPRP | 0.149
RRIRWRPPRLPRPRPRPICEPRP | 0.389
RRIRWRPPRLPRPRPRPIDKPRP | -0.105
RRIRWRPPRLPRPRPRPIDPPRP | -0.193
RRIRWRPPRLPRPRPRPIDWPRP | 0.45
RRIRWRPPRLPRPRPRPIGQPRP | 0.00299
RRIRWRPPRLPRPRPRPIGSPRP | -0.0153
RRIRWRPPRLPRPRPRPIGWPRP | 0.534
RRIRWRPPRLPRPRPRPIIYPRP | -0.327

Sequence | shrunken log2 fold change
RRIRWRPPRLPRPRPRPIKCPRP | -0.0271
RRIRWRPPRLPRPRPRPIKIPRP | -0.0625
RRIRWRPPRLPRPRPRPILLPRP | -0.0849
RRIRWRPPRLPRPRPRPILVPRP | 0.0752
RRIRWRPPRLPRPRPRPILWPRP | 0.117
RRIRWRPPRLPRPRPRPIMAPRP | 0.14
RRIRWRPPRLPRPRPRPIMQPRP | 0.0828
RRIRWRPPRLPRPRPRPIPNPRP | -0.262
RRIRWRPPRLPRPRPRPISPPRP | -0.887
RRIRWRPPRLPRPRPRPISQPRP | -0.392
RRIRWRPPRLPRPRPRPITHPRP | -0.126
RRIRWRPPRLPRPRPRPITWPRP | 0.0636
RRIRWRPPRLPRPRPRPIVNPRP | -0.0307
RRIRWRPPRLPRPRPRPIWIPRP | -0.186
RRIRWRPPRLPRPRPRPIWPPRP | 0.684
RRIRWRPPRLPRPRPRPIYHPRP | -0.305
RRIRWRPPRLPRPRPRPIYMPRP | -0.118
RRIRWRPPRLPRPRPRPKATPRP | 0.264
RRIRWRPPRLPRPRPRPKAWPRP | 0.743
RRIRWRPPRLPRPRPRPKCFPRP | -0.076
RRIRWRPPRLPRPRPRPKDLPRP | -0.0295
RRIRWRPPRLPRPRPRPKDTPRP | -0.145
RRIRWRPPRLPRPRPRPKDVPRP | -0.0454
RRIRWRPPRLPRPRPRPKDWPRP | 0.246
RRIRWRPPRLPRPRPRPKECPRP | 0.236

Sequence | shrunken log2 fold change
RRIRWRPPRLPRPRPRPKFFPRP | 0.00459
RRIRWRPPRLPRPRPRPKFIPRP | -0.17
RRIRWRPPRLPRPRPRPKFKPRP | -0.00802
RRIRWRPPRLPRPRPRPKHLPRP | 0.0564
RRIRWRPPRLPRPRPRPKIMPRP | -0.198
RRIRWRPPRLPRPRPRPKKEPRP | -0.224
RRIRWRPPRLPRPRPRPKKNPRP | 0.341
RRIRWRPPRLPRPRPRPKLHPRP | 0.0953
RRIRWRPPRLPRPRPRPKLIPRP | -0.211
RRIRWRPPRLPRPRPRPKMCPRP | -0.0087
RRIRWRPPRLPRPRPRPKMIPRP | -0.22
RRIRWRPPRLPRPRPRPKMTPRP | 0.175
RRIRWRPPRLPRPRPRPKMWPRP | 0.737
RRIRWRPPRLPRPRPRPKMYPRP | -0.13
RRIRWRPPRLPRPRPRPKPVPRP | 0.006
RRIRWRPPRLPRPRPRPKRTPRP | 0.668
RRIRWRPPRLPRPRPRPKVAPRP | 1.16
RRIRWRPPRLPRPRPRPKWGPRP | 0.463
RRIRWRPPRLPRPRPRPKWVPRP | -0.00843
RRIRWRPPRLPRPRPRPKWYPRP | -0.235
RRIRWRPPRLPRPRPRPLAFPRP | 0.153
RRIRWRPPRLPRPRPRPLAGPRP | 0.493
RRIRWRPPRLPRPRPRPLAVPRP | 0.541
RRIRWRPPRLPRPRPRPLCDPRP | -0.0525
RRIRWRPPRLPRPRPRPLCFPRP | -0.101

Sequence | shrunken log2 fold change
RRIRWRPPRLPRPRPRPLDGPRP | 0.15
RRIRWRPPRLPRPRPRPLERPRP | -0.148
RRIRWRPPRLPRPRPRPLFDPRP | 0.0264
RRIRWRPPRLPRPRPRPLFYPRP | -0.427
RRIRWRPPRLPRPRPRPLHVPRP | 0.407
RRIRWRPPRLPRPRPRPLKAPRP | 0.749
RRIRWRPPRLPRPRPRPLKCPRP | 0.0309
RRIRWRPPRLPRPRPRPLKDPRP | -0.178
RRIRWRPPRLPRPRPRPLLDPRP | 0.0164
RRIRWRPPRLPRPRPRPLLQPRP | 0.2
RRIRWRPPRLPRPRPRPLNAPRP | 0.438
RRIRWRPPRLPRPRPRPLNDPRP | -0.281
RRIRWRPPRLPRPRPRPLPAPRP | 1.25
RRIRWRPPRLPRPRPRPLREPRP | 0.125
RRIRWRPPRLPRPRPRPLSMPRP | -0.159
RRIRWRPPRLPRPRPRPLSNPRP | -0.252
RRIRWRPPRLPRPRPRPLSRPRP | 0.141
RRIRWRPPRLPRPRPRPLVTPRP | 0.687
RRIRWRPPRLPRPRPRPLWNPRP | 0.169
RRIRWRPPRLPRPRPRPLYPPRP | -0.208
RRIRWRPPRLPRPRPRPLYQPRP | -0.363
RRIRWRPPRLPRPRPRPMAIPRP | -0.198
RRIRWRPPRLPRPRPRPMAKPRP | 0.148
RRIRWRPPRLPRPRPRPMALPRP | -0.0125
RRIRWRPPRLPRPRPRPMCTPRP | 0.356
